This note sets out measurements from patent US20200407428A1 (GOVERNMENT OF THE UNITED STATES OF AMERICA AS REPRESENTED …, published 2020).

T1: Glycoprotein of Ravn virus in whole irradiated virus (Ravn virus, UniProt Q1PDC7 19-681)
T1 sequence: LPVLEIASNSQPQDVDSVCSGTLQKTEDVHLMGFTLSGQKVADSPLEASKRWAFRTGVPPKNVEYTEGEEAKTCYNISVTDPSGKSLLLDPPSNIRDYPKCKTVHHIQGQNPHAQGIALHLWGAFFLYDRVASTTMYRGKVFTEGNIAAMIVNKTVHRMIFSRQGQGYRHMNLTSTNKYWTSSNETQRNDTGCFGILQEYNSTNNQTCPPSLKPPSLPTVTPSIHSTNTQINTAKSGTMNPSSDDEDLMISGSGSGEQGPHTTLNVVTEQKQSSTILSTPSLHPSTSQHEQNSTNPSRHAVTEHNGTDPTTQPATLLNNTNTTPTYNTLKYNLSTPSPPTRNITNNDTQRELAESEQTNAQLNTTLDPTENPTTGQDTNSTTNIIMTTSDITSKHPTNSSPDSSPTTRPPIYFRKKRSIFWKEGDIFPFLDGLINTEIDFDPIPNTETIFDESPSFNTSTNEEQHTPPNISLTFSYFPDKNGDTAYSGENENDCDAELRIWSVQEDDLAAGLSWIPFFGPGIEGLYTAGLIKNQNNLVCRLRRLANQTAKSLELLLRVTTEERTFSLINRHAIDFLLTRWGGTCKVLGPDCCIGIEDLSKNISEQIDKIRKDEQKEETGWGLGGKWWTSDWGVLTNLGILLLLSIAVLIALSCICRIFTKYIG

T2: Glycoprotein of Marburg virus isolate Musoke in whole irradiated virus (Marburg virus, isolate Musoke, UniProt P35253 19-681)
T2 sequence: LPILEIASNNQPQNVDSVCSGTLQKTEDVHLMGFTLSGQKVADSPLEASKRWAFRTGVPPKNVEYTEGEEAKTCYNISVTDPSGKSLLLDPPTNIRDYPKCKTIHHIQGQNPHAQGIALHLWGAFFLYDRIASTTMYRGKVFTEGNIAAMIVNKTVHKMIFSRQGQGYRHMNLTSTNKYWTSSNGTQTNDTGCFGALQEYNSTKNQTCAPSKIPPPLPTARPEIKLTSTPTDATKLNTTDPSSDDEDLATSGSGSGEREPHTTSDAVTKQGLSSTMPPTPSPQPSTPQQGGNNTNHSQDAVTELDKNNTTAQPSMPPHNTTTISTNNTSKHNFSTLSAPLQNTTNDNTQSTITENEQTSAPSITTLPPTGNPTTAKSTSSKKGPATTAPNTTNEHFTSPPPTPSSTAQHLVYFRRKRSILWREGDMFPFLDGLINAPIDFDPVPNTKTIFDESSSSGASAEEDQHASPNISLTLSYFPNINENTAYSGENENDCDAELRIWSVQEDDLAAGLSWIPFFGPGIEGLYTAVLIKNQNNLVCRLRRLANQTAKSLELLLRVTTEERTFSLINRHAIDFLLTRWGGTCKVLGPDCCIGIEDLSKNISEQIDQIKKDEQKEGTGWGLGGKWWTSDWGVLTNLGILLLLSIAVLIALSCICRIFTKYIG

B1: R4B11 scFv-Fc (Fc fusion)
VH: QVQLEQSGAEVREPGASVKVSCKASGLTSGSYAITWVRQAPGQGLEWMGVIIPLVGVTNYAEKFQGRVTFTADTSTSTAYMELTSLRSDDTATYYCARDPFCSGNGCYGYYDVWGPGVKVTVSS
VL: DIELTQSPSSLSASVGDRVTITCRASQDISSWLAWYQQKPGKAPKLLISSASTLQSGVPSRFSGSGSGTDFTLTINSLQSEDFATYYCQQYNSVPLTFGGGTKVEMK
B2: scFv R4G7 (scFv, V domains shown)
VH: EVQLLESGGDLVQPGESLRLSCVVSGISFSNHGMTWVRQAPGKGLDWVSSIDSDGGGTFYADSVKGRFTISRDDSNNTVSLQMNSLRVEDTAVYYCAARHEYSDYYWGRGVPVTVSS
VL: DIELTQSPSILSVSPGERATLSCRASQSVGNRLAWYHQRPGQAPRLLIYGASSRPTGIPDRFSASGSGTEFTLTISSLEPEDVGVYYCQQNSKWPLTFGGGTKVEIK
B3: scFv R4H12 (scFv, V domains shown)
VH: B2 VH with E1Q, D10G, I27L, M34V, S53T, A61G, N76K, Q82E, H100Q
VL: B2 VL with D1E, I10T, N31S, R39S, V85L
B4: scFv R3H2 (scFv, V domains shown)
VH: B2 VH with D10G, I27L, M34V, S53T, A61G, N76K, Q82E, H100Q
VL: B2 VL with S9A, V13L, S22L, S28N, A64G, N91D, K93N, K103R
B5: scFv R4G8 (scFv, V domains shown)
VH: EVQLVESGGGLVQPGESLRLSCVVSGLSFSNHGVTWVRQAPGKGLDWVSSIDTDGGGTFYGDSVKGRFTISRDNSKSTVSLEMNSLRVEDTAVYYCAARQEYSDYYWGRGVLVTVSS
VL: B2 VL with S9A, V13L, S22L, S28N, A64G, N91D, K93N, K103R
B6: scFv R4G11 (scFv, V domains shown)
VH: B5 VH with E6Q, N74D, S77N, L112P
VL: B2 VL with I10T, N31S, A64G, V85L
B7: scFv R3C4 (scFv, V domains shown)
VH: B1 VH with R12K, E13K, L27F, T35S, T84S, D89E, Y95F, F101Y, Y110W, K119L
VL: DIELTQSPSSLSASVGDKVTISCRASQYIKSWLAWYQQKPGKAPKLLIYKASSLQSGVPSRFSGSGSGTDFTLTITNVQPEDFATYYCQQYDSAPFTFGPGTKLDIR
B8: scFv R4B11 (scFv, V domains shown)
VH: B1 VH
VL: B1 VL

Numbering of substitutions follows the chain as printed.

The target of one assay is T1, Glycoprotein of Ravn virus in whole …. Briefly: Western blot on whole irradiated virus, reduced.
In the case of B1, the binding result was “no binding (tested: 1 ug/ml)”.

Another assay addresses MARV Ci67 GP1-649 (Marburg virus, isolate Ci67). Briefly: SPR (BIAcore 3000), GP1-649 amine-coupled on CM5, scFv in solution. A general note: Surface plasmon resonance follows binding to a sensor surface in real time, without labels.
B2: the Kd (usually the concentration at which binding is half-saturated) was 4.6 nM; the koff (as a rule, the rate constant with which the complex falls apart) worked out at 0.000379 s⁻¹; the kon (commonly the second-order rate constant of association) came to 81900 M⁻¹ s⁻¹.
The molecule B3 returned a Kd of 3.9 nM, a koff of 0.000565 s⁻¹ and a kon of 146000 M⁻¹ s⁻¹.
Molecule B4 came in with a dissociation constant Kd of 155 nM, a koff of 0.000993 s⁻¹ and a kon of 6390 M⁻¹ s⁻¹.
The matching figures for B5: 68 nM, 0.0063 s⁻¹ and 92300 M⁻¹ s⁻¹.
The matching figures for B6: 6.3 nM, 0.000475 s⁻¹ and 75000 M⁻¹ s⁻¹.
The corresponding values for B7 are 33 nM, 0.000386 s⁻¹ and 11600 M⁻¹ s⁻¹.
For B8, the dissociation constant Kd was 4.6 nM, the koff amounted to 0.000407 s⁻¹ and the kon was determined as 87600 M⁻¹ s⁻¹.

In another assay the target is T2, Glycoprotein of Marburg virus isolate …. Briefly: Western blot of scFv-Fc on whole irradiated virus, reduced.
Regarding B1, the binding result is “binds”.
